The values that follow come from article PMC4359373, “Mechanistic insight into the conserved allosteric regulation of periplasmic proteolysis by the signaling molecule cyclic-di-GMP” (eLife, 2014).

This test has as its target L. pneumophila CdgS9 periplasmic output domain (CdgS9^Output, residues 22-152) (L. pneumophila). Put plainly: […]; 25 mM Tris-HCl pH 7.4, 100 mM NaCl, 25°C; […].

In turn, “L. pneumophila CdgS9 periplasmic output domain (CdgS9^Output, residues 22-152) (domain or fragment)” registered a stoichiometry N of 2.
In turn, L. pneumophila LapG (enzyme) had a stoichiometry N (CdgS9^Output chains per LapG (2:1)) of 2.

One may read the stoichiometry N as a count of units in the complex or per binding partner.
